{"source": "paper PMC11254670", "about": "“Soluble CD72, is a T-cell activator probably via binding to CD6 in homeostasis and autoimmunity” (Frontiers in Immunology, 2024)", "binders": {"B1": {"name": "soluble CD72 (extracellular part of human CD72, amino acids 117-359, V5 and 8xHis tagged) (domain or fragment, UniProt P21854 117-359, looked up)", "chain": "RYLQVSQQLQQTNRVLEVTNSSLRQQLRLKITQLGQSAEDLQGSRRELAQSQEALQVEQRAHQAAEGQLQACQADRQKTKETLQSEEQQRRALEQKLSNMENRLKPFFTCGSADTCCPSGWIMHQKSCFYISLTSKNWQESQKQCETLSSKLATFSEIYPQSHSYYFLNSLLPNGGSGNSYWTGLSSNKDWKLTDDTQRTRTYAQSSKCNKVHKTWSWWTLESESCRSSLPYICEMTAFRFPD"}}, "biological_target": "T1, CD6 (human (endogenous in CD4+ T cells), UniProt P30203 18-668)", "T1 sequence (looked up)": "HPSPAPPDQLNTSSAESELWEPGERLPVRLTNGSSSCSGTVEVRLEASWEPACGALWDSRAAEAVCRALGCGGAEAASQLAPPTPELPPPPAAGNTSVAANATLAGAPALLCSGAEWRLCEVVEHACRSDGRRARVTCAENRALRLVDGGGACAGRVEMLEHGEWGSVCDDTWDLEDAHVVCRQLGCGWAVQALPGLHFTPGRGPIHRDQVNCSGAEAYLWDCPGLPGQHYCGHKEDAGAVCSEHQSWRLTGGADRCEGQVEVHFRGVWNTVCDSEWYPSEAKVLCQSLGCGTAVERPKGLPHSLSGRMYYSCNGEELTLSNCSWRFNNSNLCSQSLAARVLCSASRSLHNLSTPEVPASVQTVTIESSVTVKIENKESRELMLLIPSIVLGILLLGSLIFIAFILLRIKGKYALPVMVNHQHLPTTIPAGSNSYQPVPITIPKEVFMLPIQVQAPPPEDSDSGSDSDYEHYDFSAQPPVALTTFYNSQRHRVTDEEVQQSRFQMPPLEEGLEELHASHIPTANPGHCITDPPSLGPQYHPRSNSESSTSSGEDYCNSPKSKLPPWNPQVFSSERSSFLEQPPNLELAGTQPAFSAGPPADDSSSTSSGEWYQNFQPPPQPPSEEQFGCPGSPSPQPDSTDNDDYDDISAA", "test": "cell-based or functional assay"}
{"binder": "B1", "values": [{"measurement": "phosphorylation of SLP-76 (Ser376), phospho/total ratio by western blot, activated CD4+ T cells stimulated with 2 ug/ml sCD72 against control", "result": "~2", "unit": "fold"}]}
